The values that follow come from patent US20090305241, “DNA demethylases and uses thereof” (REGENTS OF THE UNIVERSITY OF CALIFORNIA, published 2009).

For this series, the target named is T1, DME (MBP-Δ537DME, wild-type glycosylase domain) (UniProt Q8LK56).
T1 sequence: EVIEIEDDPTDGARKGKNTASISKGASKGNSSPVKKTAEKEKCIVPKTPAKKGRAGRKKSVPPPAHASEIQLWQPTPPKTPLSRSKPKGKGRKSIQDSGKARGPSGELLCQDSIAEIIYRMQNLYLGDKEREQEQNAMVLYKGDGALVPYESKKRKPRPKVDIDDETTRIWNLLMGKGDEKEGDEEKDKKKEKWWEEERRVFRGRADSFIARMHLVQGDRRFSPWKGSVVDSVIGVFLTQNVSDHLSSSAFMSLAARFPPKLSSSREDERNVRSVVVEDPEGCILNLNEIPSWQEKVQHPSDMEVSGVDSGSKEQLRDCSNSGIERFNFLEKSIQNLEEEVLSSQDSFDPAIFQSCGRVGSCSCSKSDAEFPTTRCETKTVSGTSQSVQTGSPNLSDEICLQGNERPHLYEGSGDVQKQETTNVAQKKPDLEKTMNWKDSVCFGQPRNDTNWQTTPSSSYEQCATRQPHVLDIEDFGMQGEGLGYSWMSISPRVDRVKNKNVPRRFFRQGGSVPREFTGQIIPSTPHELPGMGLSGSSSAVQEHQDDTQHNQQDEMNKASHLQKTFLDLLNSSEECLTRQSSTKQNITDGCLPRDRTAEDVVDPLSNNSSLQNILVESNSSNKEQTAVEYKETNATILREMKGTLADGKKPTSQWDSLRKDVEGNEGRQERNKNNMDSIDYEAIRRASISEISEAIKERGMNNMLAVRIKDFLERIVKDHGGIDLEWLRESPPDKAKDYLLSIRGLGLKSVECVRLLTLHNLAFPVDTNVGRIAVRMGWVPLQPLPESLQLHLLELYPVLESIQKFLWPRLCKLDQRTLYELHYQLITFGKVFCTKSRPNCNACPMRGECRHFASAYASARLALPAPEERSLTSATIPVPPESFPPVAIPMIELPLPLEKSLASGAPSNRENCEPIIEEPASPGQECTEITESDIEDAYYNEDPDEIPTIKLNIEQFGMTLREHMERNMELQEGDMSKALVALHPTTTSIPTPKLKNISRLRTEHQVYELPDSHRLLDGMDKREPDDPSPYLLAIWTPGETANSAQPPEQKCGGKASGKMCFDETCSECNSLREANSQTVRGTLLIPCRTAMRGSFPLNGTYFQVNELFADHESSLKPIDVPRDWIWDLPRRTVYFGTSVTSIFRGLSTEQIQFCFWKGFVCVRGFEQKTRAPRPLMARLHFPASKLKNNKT
Kind of series: cleavage_in_vitro. The conditions noted are these: abasic at top position 18; 5mC at bottom position 19; rate reduced approximately 10-fold.

In the case of “CTATACCTCCTCAACTCABAICGGTCACCGTCTCCGGCG / CGCCGGAGACGGTGACNGGAGTTGAGGAGGTATAG [abasic 18 opposite meC (MEA-1.6F18AP / MEA-1.6R17meC)]”, the relative cleavage rate (fold rate vs hemimethylated) was determined as 0.1.
